From patent publication CN117751141A
Numbering of substitutions follows the chain as printed.

T1: 小鼠CD300c抗原 (小鼠 (mouse))
T1 sequence (A2A7V7 whole entry, looked up): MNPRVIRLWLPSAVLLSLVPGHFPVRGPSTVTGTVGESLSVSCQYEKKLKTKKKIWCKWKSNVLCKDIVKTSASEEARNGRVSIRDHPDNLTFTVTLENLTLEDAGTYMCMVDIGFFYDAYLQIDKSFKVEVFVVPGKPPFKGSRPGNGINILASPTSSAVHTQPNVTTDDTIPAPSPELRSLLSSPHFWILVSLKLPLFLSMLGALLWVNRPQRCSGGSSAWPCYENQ

T2: CD300c抗原(11832-H08H，义翘神州) (UniProt Q08708)
T2 sequence (looked up): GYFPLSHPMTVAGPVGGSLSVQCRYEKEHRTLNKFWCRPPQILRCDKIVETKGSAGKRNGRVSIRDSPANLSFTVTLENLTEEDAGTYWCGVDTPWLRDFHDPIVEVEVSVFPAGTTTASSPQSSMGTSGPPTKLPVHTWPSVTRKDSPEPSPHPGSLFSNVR

T3: CD300c overexpressed on the surface of 293T cells and THP-1 cells (UniProt Q08708)
T3 sequence (looked up): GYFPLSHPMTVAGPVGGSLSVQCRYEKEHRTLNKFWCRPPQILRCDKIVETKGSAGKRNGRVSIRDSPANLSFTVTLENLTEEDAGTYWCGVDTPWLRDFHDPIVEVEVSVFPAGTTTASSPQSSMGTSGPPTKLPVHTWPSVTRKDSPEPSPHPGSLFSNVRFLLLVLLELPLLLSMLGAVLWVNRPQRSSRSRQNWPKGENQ

B1: 抗CD300c单克隆抗体 CL10 (antibody, from another filing, V domains shown)
VH: EVQLLESGGGLVQPGGSLRLSCAASGFTFSSYGMHWVRQAPGKGLEWVSAISGSGGSTYYADSVKGRFTISRDNSKNTLYLQMNSLRAEDTAVYYCASGYGLMDVWGQGTLVTVSS
VL: QSVLTQPPSASGTPGQRVTISCTRSSGIIASNYVQWYQQLPGTAPKLLIYRNNQRPSGVPDRFSGSKSGTSASLAISGLRSEDEADYYCSSYAGNNNLVFGGGTKLTVL
B2: 抗CD300c单克隆抗体 SL18 (antibody, from another filing)
chain: RVQLLESGGGLVQPGGSLRLSCAASGFTFSDYHMHWVRQAPGKGLEWVSTISSSGGYTYYAESVKSRFTISRDNSKNTLYLQMNSLRAEDTAVYYCARSIRLPLDYWGQGTLVTVSSSGGGSGGGGSGGGGSQSVLTQPPSASGTPGQRVTISCSGNNIGSKGVHWYQQLPGTAPKLLIYEDSKRPSGVRDRFSGSKSGTSASLAISGLRSEDEADYYCQSYDSTKGVVFGGGTKLTVL
B3: 抗CD300c单克隆抗体 CL7 (antibody, from another filing, V domains shown)
VH: EVQLLESGGGLVQPGGSLRLSCAASGFTFSRYAMSWVRQAPGKGLEWVSAISGSGGSTYYADSVKGRFTISRDNSKNTLYLQMNSLRAEDTAVYYCARSSQGIFDIWGQGTLVTVSS
VL: QSVLTQPPSASGTPGQRVTISCSGNNIGTRRVHWYQQLPDTAPKLLIYSKNNRPSGVPDRFSGSKSGTSASLAISGLRSEDEADYYCAAWDDSLSGPVFGGGTKLTVL
B4: 抗CD300c单克隆抗体 CL4 (antibody, from another filing, V domains shown)
VH: RVQLLESGGGLVQPGGSLRLSCAASGFTFGSNYMSWVRQAPGKGLEWVSTISGSGTSTYYADSLKGRFTISRDNSKNTLYLQMNSLRAEDTAVYYCARGMWGMDVWGQGTLVTVSS
VL: QSVLTQPPSASGTPGQRVTISCTGKHRHTVNWYQLLPGTAPKLLIYLDSERPSGVPDRFSGSKSGTSASLAISGLRSEDEADYYCQSYDSSSVVFGGGTKLTVL
B5: 抗CD300c单克隆抗体 CL6 (antibody, from another filing, V domains shown)
VH: EVQLLESGGGLVQPGGSLRLSCAASGFTFSSYGMHWVRQAPGKGLEWVSAISGSGGSTYYADSVKGRFTISRDNSKNTLYLQMNSLRAEDTAVYYCAVSGAGRGFFDYWGQGTLVTVSS
VL: QSVLTQPPSASGTPGQRVTISCSGSSSNIGSNYVYWYQQLPGTAPKLLIYEDNKRPSGVPDRFSGSKSGTSASLAISGLRSEDEADYYCSSYTSSSTVIFGGGTKLTVL
B6: 抗CD300c单克隆抗体 SK11 (antibody, from another filing, V domains shown)
VH: B1 VH with E1R, S31T, S98R, Y100L, G101S, L102G, M103L, V105Y
VL: EIVLTQSPGTLSLSPGERATLSCRSSQGITNYLAWYQQKPGQAPRLLIYDASNRATGIPDRFSGSGSGTDFTLTISRLEPEDFAVYYCQQSYSTPLTFGQGTKVEIK
B7: 抗CD300c单克隆抗体 SK15 (antibody, from another filing, V domains shown)
VH: B1 VH with E1R, G33A, S52N, M83T, S98R, Y100L, G101Q, L102G, M103F, V105Y
VL: B6 VL with R24Q, S25A, G28D, A34N, N53S, R54L, A55E, L96I
B8: 抗CD300c单克隆抗体 CK2 (antibody, from another filing, V domains shown)
VH: B1 VH with G56T, T58I, S98R, Y100G, G101T, L102A, M103F, V105Y
VL: B6 VL with S25A, G28R, I29S, T30D, L96F, I106T
B9: 抗CD300c单克隆抗体 SK13 (antibody, from another filing, V domains shown)
VH: RVQLLESGGGLVQPGGSLRLSCAASGFTFSDYAMSWVRQAPGKGLEWVSSISSSSSYIYYTDSVKGRFTISRDNSKNTLYLQMNSLRAEDTAVYYCARGGYGFDYWGQGTLVTVSS
VL: EIVLTQSPGTLSLSPGERATLSCRASQSISSYLNWYQQKPGQAPRLLIYSASSRPQGIPDRFSGSGSGTDFTLTISRLEPEDFAVYYCQQYDDLPFTFGQGTKVEIK
B10: 抗CD300c单克隆抗体 SK16 (antibody, from another filing, V domains shown)
VH: RVQLLESGGGLVQPGGSLRLSCAASGFTFSSYAMSWVRQAPGKGLEWVSAINGSGGSTLYADSVKGRFTISRDNSKNTLYLQMNSLRAEDTAVYYCARGVSGFDSWGQGTLVTVSS
VL: B6 VL with S25I, G28S, T30S, N31S, A34N, N53L, S93K, L96I
B11: 抗CD300c单克隆抗体 SK12 (antibody, from another filing)
chain: RVQLLESGGGLVQPGGSLRLSCAASGFTFSSYAMHWVRQAPGKGLEWVSAISGSGGDTYHADSVKGRFTISRDNSKNTLYLQMNSLRAEDTAVYYCTRGLSGFDYWGQGTLVTVSSGGGGSGGGGSGGGGSEIVLTQSPGTLSLSPGERATLSCRASQSISSYLNWYQQKPGQAPRLLIYDASNRAPGIPDRFSGSGSGTDFTLTISRLEPEDFAVYYCQQSYSIPITFGQGTKVEIK
B12: 抗CD300c单克隆抗体 CK3 (antibody, from another filing, V domains shown)
VH: RVQLLESGGGLVQPGGSLRLSCAASGFTFSSYAISWVRQAPGKGLEWVSATSGSGRATYYADSVKGRFTISRDNSKNTLYLQMNSLRAEDTAVYYCARDTWWEGYFDLWGQGTLVTVSS
VL: EIVLTQSPGTLSLSPGERATLSCQASHISTHLNWYQQKPGQAPRLLIYGASSRATGIPDRFSGSGSGTDFTLTISRLEPEDFAVYYCQQYNTYPPTFGQGTKVEIK
B13: 抗CD300c单克隆抗体 CK1 (antibody, from another filing, V domains shown)
VH: EVQLLESGGGLVQPGGSLRLSCAASGFTFSRYAMTWVRQAPGKGLEWVSSMSGTGGTTYYADSVKGRFTISRDNSKNTLYLQMNSLRAEDTAVYYCARGAYGFDHWGQGTLVTVSS
VL: B6 VL with S25A, G28S, T30G, A34N, R54L, A55E, Y92S, S93A, T94I, L96Y
B14: 抗CD300c单克隆抗体 CL5 (antibody, from another filing, V domains shown)
VH: RVQLLESGGGLVQPGGSLRLSCAASGFTFSSYAMHWVRQAPGKGLEWVSSISGGGYGTYYADSVKGRFTISRDNSKNTLYLQMNSLRAEDTAVYYCARSTVWAFDIWGQGTLVTVSS
VL: QSVLTQPPSASGTPGQRVTISCSGNNIGSKSVHWYQQLPGTAPKLLIYDVSKRPSERPDRFSGSKSGTSASLAISDLRSEDEADYYCQSFDSSGTWIFGGGTKLTVL
B15: 抗CD300c单克隆抗体 CL9 (antibody, from another filing, V domains shown)
VH: B3 VH with R31S, A33Y, M34W, S99I, S100D, Q101V, G102Y, I103G
VL: QSVLTQPPSASGTPGQRVTISCSGSTSNIGTNYVYWYQQLPGTAPKLLIYDNNNRPSGVPDRFSGSKSGTSASLAISGLRSEDEADYYCQTWDSSTDVVFGGGTKLTVL
B16: 抗CD300c单克隆抗体 SK14 (antibody, from another filing)
chain: EVQLLESGGGLVQPGGSLRLSCAASGFTFSNFAIAWVRQAPGKGLEWVSAISGRGTSTYYADSVKGRFTISRDNSKNTLYLQMNSLRAEDTAVYYCARGVSGFDSWGQGTLVTVSSGGGGSGGGGSGGGGSEIVLTQSPGTLSLSPGERATLSCRASQSISSHLAWYQQKPGQAPRLLIYDTSNRATGIPDRFSGSGSGTDFTLTISRLEPEDFAVYYCQQSYSTPFTFGQGTKVEIK
B17: 抗CD300c单克隆抗体 SK17 (antibody, from another filing, V domains shown)
VH: EVQLLESGGGLVQPGGSLRLSCAASGFTFSSYYWSWVRQAPGKGLEWVSTITGSGGSTDYANSVKGRFTISRDNSKNTLYLQMNSLRAEDTAVYYCATGGGIFDYWGQGTLVTVSS
VL: B6 VL with R24Q, S25A, G28T, T30S, A34N, S91Y, Y92N, T94Y, L96P, T97S

Target: T1, 小鼠CD300c抗原 (小鼠 (mouse))
Experiment: cell-based or functional assay

癌细胞增殖抑制作用 (CT26 mouse colorectal cancer cells, CCK-8, 10 μg/mL antibody, 5 days)	Binder
15 %	B1
38 %	B2
66 %	B3

Target: T2, CD300c抗原(11832-H08H，义翘神州)
Experiment: binding ELISA, CD300c antigen coated at 8 μg/mL, HRP anti-Fc IgG

EC50 [µg/mL]	Binder
0.031	B4
0.148	B5
0.039	B1
0.052	B6
14.7	B7
0.033	B8
0.044	B9
2.42	B10
0.067	B11
0.17	B2
0.793	B12
0.056	B13
0.032	B14
0.047	B3
0.094	B15
0.065	B16
0.054	B17

Target: T2, CD300c抗原(11832-H08H，义翘神州)
Experiment: SPR, CD300c immobilised on CM5 chip (399.2 RU), CL7 0-6.25 μg/mL as analyte

Kd [nM]	Binder
0.52	B3

Target: T3, CD300c overexpressed on the surface of 293T cells and THP-1 cells
Experiment: flow cytometry (FACS binding) on 293T cells overexpressing CD300c, FITC anti-human IgG (H+L), MFI

EC50 [nM]	Binder
2.7	B3

Target: T3, CD300c overexpressed on the surface of 293T cells and THP-1 cells
Experiment: flow cytometry (FACS binding) on THP-1 cells overexpressing CD300c, FITC anti-human IgG (H+L), MFI

EC50 [nM]	Binder
2.6	B3
